Source: publication doi:10.1101/2020.10.13.338178
No end group written: not given here. *: point of attachment. AMC = Cc1cc(=O)oc2cc(N*)ccc12

B1: Leucine-Leucine-Leucine-Leucine-7-amido-4-methyl-coumarin (peptide)
peptide: LLLL-{AMC}

How the values were obtained:
[1] = target: Plasmodium vivax M1 aminopeptidase (Plasmodium vivax)
[2] = target: Plasmodium berghei M1 aminopeptidase (Plasmodium berghei)
[3] = target: Plasmodium berghei M17 aminopeptidase (Plasmodium berghei)
[4] = target: T1, Plasmodium vivax M17 aminopeptidase (Plasmodium vivax) (UniProt A5K3U9)
T1 sequence (A5K3U9 74-621, looked up): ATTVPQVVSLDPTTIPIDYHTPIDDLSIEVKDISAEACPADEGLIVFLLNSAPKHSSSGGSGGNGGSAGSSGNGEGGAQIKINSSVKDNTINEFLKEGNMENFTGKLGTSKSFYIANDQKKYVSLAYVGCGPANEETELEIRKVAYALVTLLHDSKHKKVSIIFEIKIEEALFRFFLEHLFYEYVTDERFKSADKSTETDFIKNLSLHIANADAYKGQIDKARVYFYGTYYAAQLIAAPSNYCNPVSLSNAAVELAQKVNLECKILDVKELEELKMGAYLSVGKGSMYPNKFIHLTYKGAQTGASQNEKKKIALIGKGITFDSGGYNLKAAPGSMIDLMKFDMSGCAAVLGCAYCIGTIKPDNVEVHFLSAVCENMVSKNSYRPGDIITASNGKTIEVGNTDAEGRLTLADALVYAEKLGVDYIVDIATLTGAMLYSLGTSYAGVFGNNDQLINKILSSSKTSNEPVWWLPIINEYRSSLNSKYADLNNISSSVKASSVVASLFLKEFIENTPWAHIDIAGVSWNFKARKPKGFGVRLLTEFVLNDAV

[5] = target: T2, Plasmodium falciparum M17 leucine aminopeptidase (Plasmodium falciparum) (UniProt Q8IL11)
T2 sequence: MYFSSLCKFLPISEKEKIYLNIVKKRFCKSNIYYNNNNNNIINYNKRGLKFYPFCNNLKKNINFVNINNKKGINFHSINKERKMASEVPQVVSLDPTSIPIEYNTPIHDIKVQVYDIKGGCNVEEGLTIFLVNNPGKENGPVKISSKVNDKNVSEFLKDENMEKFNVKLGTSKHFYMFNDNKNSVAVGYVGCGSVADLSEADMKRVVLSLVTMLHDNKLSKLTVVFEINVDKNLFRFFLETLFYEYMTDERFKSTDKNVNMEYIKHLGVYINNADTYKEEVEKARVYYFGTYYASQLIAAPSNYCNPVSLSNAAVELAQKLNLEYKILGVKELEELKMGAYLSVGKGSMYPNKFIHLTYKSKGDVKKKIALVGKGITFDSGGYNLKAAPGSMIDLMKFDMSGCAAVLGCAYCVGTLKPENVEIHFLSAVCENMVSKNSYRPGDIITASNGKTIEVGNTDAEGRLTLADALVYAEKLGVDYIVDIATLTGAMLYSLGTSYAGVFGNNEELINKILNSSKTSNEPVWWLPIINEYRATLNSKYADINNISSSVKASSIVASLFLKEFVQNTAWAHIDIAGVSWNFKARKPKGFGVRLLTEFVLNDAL

Row | Molecule | Km of hydrolysis (release of NHMec, Michaelis-Menten kinetics) [1] [µM] | Km of hydrolysis (release of NHMec, Michaelis-Menten kinetics) [2] [µM] | Km of hydrolysis (release of NHMec, Michaelis-Menten kinetics, 1 mM CoCl2) [3] [µM] | Km of hydrolysis (release of NHMec, Michaelis-Menten kinetics, 1 mM CoCl2) [4] [µM] | Km of hydrolysis (release of NHMec, Michaelis-Menten kinetics, 1 mM CoCl2) [5] [µM]
1 | Leucine-Leucine-7-amido-4-methyl-coumarin (peptide) | 27.9 | 28.4 | 25 | 32.9 | 30.8
2 | B1 | 41.5 | 33.9 | 4.6 | 22.6 | 6.9
